US20200270352A1

Columns and labels:
[1] = molecular target: soluble recombinant human IGF-1R hetero-tetramer (2 α chains and the extracellular domains of 2 β chains) with C-terminal 10-His tag (R&D Systems 305-GR-50) (human) (UniProt P08069); assay: SPR Biacore X100, His-captured h-IGF-1R (about 600 RU), mean of 4 experiments
[2] = molecular target: soluble recombinant human IGF-1R hetero-tetramer (2 α chains and the extracellular domains of 2 β chains) with C-terminal 10-His tag (R&D Systems 305-GR-50) (human) (UniProt P08069); assay: SPR, Ln(2)/koff

Kd [1]: 0.06 nM
half-life of the complex [2]: 2 to 3 h
B1: humanized antibody hz208F2 VH3/VL3 (hz208F2 H026/L024) (antibody, human IgG1, kappa, V domains shown)
VH: QVQLVQSGAEVKKPGASVKMSCKASGYTFTSYYIYWVKQAPGQGLEWLGWIWPGDGSTKYNEKFQGRVTLTADKSSNTAYMFLSSLRSEDTAVYFCASPMITPNYAMDYWGQGTLVTVSS
VL: DIQMTQSPSSLSASVGDRVTISCRASQDISKYLNWYQQKPGKAPKLLIYYTSRLHSGVPSRFSGRGSGTDYSLTISNLQPEDFATYFCQQGSTLPYTFGGGTKVEIKR
